The experiment concerns the target ZIKV sE (strain PF13) (Zika virus, strain PF13). The experiment is described as follows: SEC-MALS. Background: In gel filtration, larger molecules generally elute earlier.

As usually defined, the stoichiometry N is a count of units in the complex or per binding partner. The substance “ZIKV sE (strain PF13) (domain or fragment)” had a stoichiometry N of 2.

(Values after publication doi:10.1101/2022.12.06.519383.)
